In the supplement of paper PMC6757056:
± gives the standard deviation of the averaged measurements.

B1: library; a variant is named by its letters at N, in order (parent)
chain: GCUGUCACCGGUGUAUUACCCUAGUGGUCGACCGGUCUGAUGAGUCUNNNNNNAGACGAAACAGC

What was measured:
[1] = variants of: B1; experiment: normalized RNA/DNA level with ligand (relative to sTRSVctl = 100) (log10 (% of sTRSVctl)); ligand: hypoxanthine (xanthine aptamer); higher = less ribozyme self-cleavage, higher mRNA level; conditions: ligand concentration (+) RNA-Seq: 5 mM, HEK293T, reporter: mCherry (pCS4076), ligand present: yes
In short: (§1)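 HEK293T cells received ligand, where used, 1 h before being transfected with 4 µg per 6-well well of library plasmids encoding reporter-linked ribozyme switches. After 72 h, RNA was extracted with EDTA and sequenced. RNA level was derived from RNA reads per DNA read, normalized to a spiked-in non-cleaving sequence or the top sequences, then scaled and log-transformed. Values were ×100 then log10, the top set was 25 sequences, and the minimum was 100 DNA reads.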

[2] = variants of: B1; experiment: normalized RNA/DNA level without ligand (relative to sTRSVctl = 100) (log10 (% of sTRSVctl)); ligand: hypoxanthine (xanthine aptamer); higher = less ribozyme self-cleavage, higher mRNA level; conditions: HEK293T, reporter: mCherry (pCS4076), ligand present: no
In short: as §1

Row | Variant | normalized RNA/DNA level with ligand (log10) [1] | normalized RNA/DNA level without ligand (log10) [2]
1 | GCUGUCACCGGUGUAUUACCCUAGUGGUCGACCGGUCUGAUGAGUCUUCGAAUAGACGAAACAGC [UCGAAU] | 1.87 ± 0.043 | 1.476 ± 0.0078
2 | GCUGUCACCGGUGUAUUACCCUAGUGGUCGACCGGUCUGAUGAGUCUUCGAACAGACGAAACAGC [UCGAAC] | 1.929 ± 0.011 | 1.734 ± 0.012
3 | GCUGUCACCGGUGUAUUACCCUAGUGGUCGACCGGUCUGAUGAGUCUCCGAGUAGACGAAACAGC [CCGAGU] | 1.89 ± 0.03 | 1.57 ± 0.029
4 | GCUGUCACCGGUGUAUUACCCUAGUGGUCGACCGGUCUGAUGAGUCUCCGAGCAGACGAAACAGC [CCGAGC] | 1.899 ± 0.0048 | 1.44 ± 0.037
5 | GCUGUCACCGGUGUAUUACCCUAGUGGUCGACCGGUCUGAUGAGUCUGCGACUAGACGAAACAGC [GCGACU] | 1.92 ± 0.026 | 1.755 ± 0.013
6 | GCUGUCACCGGUGUAUUACCCUAGUGGUCGACCGGUCUGAUGAGUCUUCGAUAAGACGAAACAGC [UCGAUA] | 1.91 ± 0.026 | 1.57 ± 0.032
7 | GCUGUCACCGGUGUAUUACCCUAGUGGUCGACCGGUCUGAUGAGUCUGCCUGGAGACGAAACAGC [GCCUGG] | 1.94 ± 0.062 | 1.5 ± 0.017
8 | GCUGUCACCGGUGUAUUACCCUAGUGGUCGACCGGUCUGAUGAGUCUGCCUGUAGACGAAACAGC [GCCUGU] | 1.93 ± 0.024 | 1.83 ± 0.015
9 | GCUGUCACCGGUGUAUUACCCUAGUGGUCGACCGGUCUGAUGAGUCUGCCUGCAGACGAAACAGC [GCCUGC] | 1.977 ± 0.012 | 1.86 ± 0.045
10 | GCUGUCACCGGUGUAUUACCCUAGUGGUCGACCGGUCUGAUGAGUCUCCCUUGAGACGAAACAGC [CCCUUG] | 1.984 ± 0.013 | 1.84 ± 0.045
11 | GCUGUCACCGGUGUAUUACCCUAGUGGUCGACCGGUCUGAUGAGUCUCCCUUUAGACGAAACAGC [CCCUUU] | 2 ± 0.059 | 1.938 ± 0.0021
12 | GCUGUCACCGGUGUAUUACCCUAGUGGUCGACCGGUCUGAUGAGUCUUCCUUCAGACGAAACAGC [UCCUUC] | 1.93 ± 0.046 | 1.89 ± 0.062
13 | GCUGUCACCGGUGUAUUACCCUAGUGGUCGACCGGUCUGAUGAGUCUUCCUUGAGACGAAACAGC [UCCUUG] | 1.91 ± 0.034 | 1.64 ± 0.022
14 | GCUGUCACCGGUGUAUUACCCUAGUGGUCGACCGGUCUGAUGAGUCUUCCUUAAGACGAAACAGC [UCCUUA] | 1.956 ± 0.015 | 1.87 ± 0.069
15 | GCUGUCACCGGUGUAUUACCCUAGUGGUCGACCGGUCUGAUGAGUCUUCCUUUAGACGAAACAGC [UCCUUU] | 2.01 ± 0.04 | 1.94 ± 0.032
16 | GCUGUCACCGGUGUAUUACCCUAGUGGUCGACCGGUCUGAUGAGUCUCCGAUAAGACGAAACAGC [CCGAUA] | 1.92 ± 0.049 | 1.72 ± 0.059
17 | GCUGUCACCGGUGUAUUACCCUAGUGGUCGACCGGUCUGAUGAGUCUCCGAUCAGACGAAACAGC [CCGAUC] | 1.99 ± 0.037 | 1.87 ± 0.056
18 | GCUGUCACCGGUGUAUUACCCUAGUGGUCGACCGGUCUGAUGAGUCUGCGAUAAGACGAAACAGC [GCGAUA] | 1.88 ± 0.083 | 1.594 ± 0.0079
19 | GCUGUCACCGGUGUAUUACCCUAGUGGUCGACCGGUCUGAUGAGUCUACGAACAGACGAAACAGC [ACGAAC] | 1.89 ± 0.036 | 1.58 ± 0.017
20 | GCUGUCACCGGUGUAUUACCCUAGUGGUCGACCGGUCUGAUGAGUCUUCGAGGAGACGAAACAGC [UCGAGG] | 1.89 ± 0.036 | 1.59 ± 0.056
21 | GCUGUCACCGGUGUAUUACCCUAGUGGUCGACCGGUCUGAUGAGUCUUCGAGCAGACGAAACAGC [UCGAGC] | 1.97 ± 0.029 | 1.6 ± 0.1

Row | Variant | normalized RNA/DNA level with ligand (log10) [1] | normalized RNA/DNA level without ligand (log10) [2]
22 | GCUGUCACCGGUGUAUUACCCUAGUGGUCGACCGGUCUGAUGAGUCUCCCUGCAGACGAAACAGC [CCCUGC] | 2.04 ± 0.059 | 1.901 ± 0.0066
23 | GCUGUCACCGGUGUAUUACCCUAGUGGUCGACCGGUCUGAUGAGUCUCCCUGUAGACGAAACAGC [CCCUGU] | 1.94 ± 0.078 | 1.94 ± 0.053
24 | GCUGUCACCGGUGUAUUACCCUAGUGGUCGACCGGUCUGAUGAGUCUCCCUGGAGACGAAACAGC [CCCUGG] | 1.91 ± 0.028 | 1.8 ± 0.05
25 | GCUGUCACCGGUGUAUUACCCUAGUGGUCGACCGGUCUGAUGAGUCUUCCUGUAGACGAAACAGC [UCCUGU] | 1.93 ± 0.021 | 1.86 ± 0.043
26 | GCUGUCACCGGUGUAUUACCCUAGUGGUCGACCGGUCUGAUGAGUCUUCCUGAAGACGAAACAGC [UCCUGA] | 1.974 ± 0.017 | 1.77 ± 0.069
27 | GCUGUCACCGGUGUAUUACCCUAGUGGUCGACCGGUCUGAUGAGUCUUCGACUAGACGAAACAGC [UCGACU] | 1.93 ± 0.056 | 1.72 ± 0.035
28 | GCUGUCACCGGUGUAUUACCCUAGUGGUCGACCGGUCUGAUGAGUCUUCGACAAGACGAAACAGC [UCGACA] | 1.93 ± 0.023 | 1.72 ± 0.063
29 | GCUGUCACCGGUGUAUUACCCUAGUGGUCGACCGGUCUGAUGAGUCUUCGACGAGACGAAACAGC [UCGACG] | 1.94 ± 0.021 | 1.704 ± 0.007
30 | GCUGUCACCGGUGUAUUACCCUAGUGGUCGACCGGUCUGAUGAGUCUUCGACCAGACGAAACAGC [UCGACC] | 1.976 ± 0.015 | 1.955 ± 0.011
31 | GCUGUCACCGGUGUAUUACCCUAGUGGUCGACCGGUCUGAUGAGUCUACCUGCAGACGAAACAGC [ACCUGC] | 1.99 ± 0.051 | 1.912 ± 0.016
32 | GCUGUCACCGGUGUAUUACCCUAGUGGUCGACCGGUCUGAUGAGUCUACCUGUAGACGAAACAGC [ACCUGU] | 1.9472 ± 0.00096 | 1.81 ± 0.033
33 | GCUGUCACCGGUGUAUUACCCUAGUGGUCGACCGGUCUGAUGAGUCUCCGACAAGACGAAACAGC [CCGACA] | 1.978 ± 0.01 | 1.79 ± 0.025
34 | GCUGUCACCGGUGUAUUACCCUAGUGGUCGACCGGUCUGAUGAGUCUACGACCAGACGAAACAGC [ACGACC] | 1.97 ± 0.051 | 1.85 ± 0.02
35 | GCUGUCACCGGUGUAUUACCCUAGUGGUCGACCGGUCUGAUGAGUCUACCUUCAGACGAAACAGC [ACCUUC] | 1.958 ± 0.018 | 1.96 ± 0.03
36 | GCUGUCACCGGUGUAUUACCCUAGUGGUCGACCGGUCUGAUGAGUCUACCUUAAGACGAAACAGC [ACCUUA] | 1.94 ± 0.068 | 1.86 ± 0.03
37 | GCUGUCACCGGUGUAUUACCCUAGUGGUCGACCGGUCUGAUGAGUCUACCUUUAGACGAAACAGC [ACCUUU] | 1.97 ± 0.034 | 1.89 ± 0.0069
38 | GCUGUCACCGGUGUAUUACCCUAGUGGUCGACCGGUCUGAUGAGUCUGCCUUUAGACGAAACAGC [GCCUUU] | 1.94 ± 0.041 | 1.92 ± 0.039
39 | GCUGUCACCGGUGUAUUACCCUAGUGGUCGACCGGUCUGAUGAGUCUCCGAAUAGACGAAACAGC [CCGAAU] | 1.9 ± 0.083 | 1.66 ± 0.028
40 | GCUGUCACCGGUGUAUUACCCUAGUGGUCGACCGGUCUGAUGAGUCUCCGAACAGACGAAACAGC [CCGAAC] | 1.9 ± 0.019 | 1.606 ± 0.0099
41 | GCUGUCACCGGUGUAUUACCCUAGUGGUCGACCGGUCUGAUGAGUCUACCUCUAGACGAAACAGC [ACCUCU] | 1.99 ± 0.054 | 1.926 ± 0.01
42 | GCUGUCACCGGUGUAUUACCCUAGUGGUCGACCGGUCUGAUGAGUCUGCGAGCAGACGAAACAGC [GCGAGC] | 1.81 ± 0.034 | 1.37 ± 0.079
